The target of the experiment is Fibronectin 1 (FN1) (human (endogenous in C28/I2)). Description: proximity ligation; Duolink in situ PLA on decellularized, fixed matrix of C28/I2 WT cells cultured for 72 h; primary antibodies mouse anti-fibronectin or mouse anti-Col II with rabbit anti-ERp57; controls: matrix of ERp57 KO cells and omitted primary antibodies; some cultures incubated with 10 mM DTT for 15 min at 37°C before decellularization (PLA signal significantly decreased).
Sequence of Fibronectin 1 (FN1) (human (endogenous in C28/I2)) (P02751 32-2477): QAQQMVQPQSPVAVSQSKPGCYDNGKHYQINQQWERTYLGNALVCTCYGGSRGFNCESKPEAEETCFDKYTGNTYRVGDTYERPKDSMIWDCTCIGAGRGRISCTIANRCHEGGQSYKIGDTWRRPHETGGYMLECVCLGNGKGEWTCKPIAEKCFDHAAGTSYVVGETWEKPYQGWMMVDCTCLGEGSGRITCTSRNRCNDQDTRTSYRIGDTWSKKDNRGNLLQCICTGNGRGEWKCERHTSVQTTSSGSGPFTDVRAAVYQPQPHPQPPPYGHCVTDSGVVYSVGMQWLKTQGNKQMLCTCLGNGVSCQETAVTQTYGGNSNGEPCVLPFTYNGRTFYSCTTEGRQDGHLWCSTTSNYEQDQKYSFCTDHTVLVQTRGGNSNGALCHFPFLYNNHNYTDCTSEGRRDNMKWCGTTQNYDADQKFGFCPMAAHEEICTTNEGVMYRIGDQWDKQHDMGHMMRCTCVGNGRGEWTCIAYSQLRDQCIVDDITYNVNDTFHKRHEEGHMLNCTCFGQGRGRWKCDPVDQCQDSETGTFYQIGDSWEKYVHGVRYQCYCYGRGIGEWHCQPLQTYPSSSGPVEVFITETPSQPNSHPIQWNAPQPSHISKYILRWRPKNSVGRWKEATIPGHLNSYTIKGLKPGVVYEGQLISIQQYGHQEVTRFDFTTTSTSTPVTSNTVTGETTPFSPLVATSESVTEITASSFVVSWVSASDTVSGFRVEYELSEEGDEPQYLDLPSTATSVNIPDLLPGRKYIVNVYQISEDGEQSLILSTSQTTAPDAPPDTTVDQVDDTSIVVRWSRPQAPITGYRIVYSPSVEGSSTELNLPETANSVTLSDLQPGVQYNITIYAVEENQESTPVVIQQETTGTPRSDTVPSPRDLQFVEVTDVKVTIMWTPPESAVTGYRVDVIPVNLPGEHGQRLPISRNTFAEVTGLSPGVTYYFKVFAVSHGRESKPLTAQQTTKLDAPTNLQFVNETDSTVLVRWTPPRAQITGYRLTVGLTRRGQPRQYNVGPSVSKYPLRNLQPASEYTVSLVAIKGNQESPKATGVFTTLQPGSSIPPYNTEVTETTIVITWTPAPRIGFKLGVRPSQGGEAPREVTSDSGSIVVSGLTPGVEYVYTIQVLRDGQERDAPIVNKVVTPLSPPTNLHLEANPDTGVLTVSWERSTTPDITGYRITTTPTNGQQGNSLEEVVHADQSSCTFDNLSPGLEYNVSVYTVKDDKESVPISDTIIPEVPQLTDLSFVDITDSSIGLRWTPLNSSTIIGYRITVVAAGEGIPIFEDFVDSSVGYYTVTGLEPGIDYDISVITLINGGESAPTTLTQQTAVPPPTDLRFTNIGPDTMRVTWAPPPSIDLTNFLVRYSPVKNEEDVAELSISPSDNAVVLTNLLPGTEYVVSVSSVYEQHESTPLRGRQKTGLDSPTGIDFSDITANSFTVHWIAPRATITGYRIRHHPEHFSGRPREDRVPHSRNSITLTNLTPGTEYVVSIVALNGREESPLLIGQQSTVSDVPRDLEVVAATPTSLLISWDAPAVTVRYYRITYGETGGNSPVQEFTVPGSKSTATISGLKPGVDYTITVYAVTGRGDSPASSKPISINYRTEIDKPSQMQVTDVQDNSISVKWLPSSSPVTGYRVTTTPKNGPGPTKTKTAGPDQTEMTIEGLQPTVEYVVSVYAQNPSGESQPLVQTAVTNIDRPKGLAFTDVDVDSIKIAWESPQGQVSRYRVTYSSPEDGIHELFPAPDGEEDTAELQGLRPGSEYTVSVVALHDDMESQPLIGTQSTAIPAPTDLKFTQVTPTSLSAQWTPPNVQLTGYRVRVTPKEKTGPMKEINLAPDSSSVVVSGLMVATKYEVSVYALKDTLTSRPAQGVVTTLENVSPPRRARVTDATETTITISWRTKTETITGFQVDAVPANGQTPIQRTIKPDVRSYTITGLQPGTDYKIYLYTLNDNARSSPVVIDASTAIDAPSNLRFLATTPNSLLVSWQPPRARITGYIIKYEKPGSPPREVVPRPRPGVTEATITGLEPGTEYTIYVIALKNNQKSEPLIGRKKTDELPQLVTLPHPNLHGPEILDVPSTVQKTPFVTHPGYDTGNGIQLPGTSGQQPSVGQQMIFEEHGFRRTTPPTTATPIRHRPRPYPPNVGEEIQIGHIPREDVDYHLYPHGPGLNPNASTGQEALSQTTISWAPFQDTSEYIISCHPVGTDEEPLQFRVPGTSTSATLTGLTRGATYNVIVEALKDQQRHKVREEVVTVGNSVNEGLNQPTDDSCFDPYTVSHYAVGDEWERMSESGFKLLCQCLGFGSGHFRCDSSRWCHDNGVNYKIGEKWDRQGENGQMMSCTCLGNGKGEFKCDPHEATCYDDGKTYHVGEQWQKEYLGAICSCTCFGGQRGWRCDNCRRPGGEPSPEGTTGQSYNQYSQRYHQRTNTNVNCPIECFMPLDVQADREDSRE

Substance “endoplasmic reticulum protein 57 (ERp57) (from UniProt P30101 25-505) (enzyme)” showed a PLA mean staining intensity of 0.284.

The record behind these values is article PMC12702194.
